From patent publication US20200317768A1 (published 2020)
Where a chain is given by its changes, count along the chain named. In names and notes the source's numbering stands.

T1: cynomolgus monkey FcγRIIIaS extracellular domain, C-terminal His-tag (cynomolgus monkey, UniProt Q8SPW2 21-206 at identity 1.00))
T1 construct: also called cyno FcγRIIIaS; FcgRIIIaS
T1 chain: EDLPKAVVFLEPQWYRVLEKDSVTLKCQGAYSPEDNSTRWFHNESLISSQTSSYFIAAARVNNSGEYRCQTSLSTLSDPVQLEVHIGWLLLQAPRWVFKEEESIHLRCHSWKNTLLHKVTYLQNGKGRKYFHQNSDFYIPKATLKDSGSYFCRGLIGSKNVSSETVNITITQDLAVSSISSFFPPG

T2: cynomolgus monkey FcγRIIa3 extracellular domain, C-terminal His-tag (cynomolgus monkey)
T2 construct: also called cyno FcγRIIa3; FcgRIIa3
T2 chain: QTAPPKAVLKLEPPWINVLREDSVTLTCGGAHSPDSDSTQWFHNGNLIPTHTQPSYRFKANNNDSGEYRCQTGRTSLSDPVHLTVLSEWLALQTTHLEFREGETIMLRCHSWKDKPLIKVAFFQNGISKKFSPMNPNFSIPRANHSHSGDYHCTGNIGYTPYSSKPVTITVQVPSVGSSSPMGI

T3: cynomolgus monkey FcγRIIb extracellular domain, C-terminal His-tag (cynomolgus monkey)
T3 construct: also called cyno FcγRIIb; cynoFcγRIIb
T3 chain: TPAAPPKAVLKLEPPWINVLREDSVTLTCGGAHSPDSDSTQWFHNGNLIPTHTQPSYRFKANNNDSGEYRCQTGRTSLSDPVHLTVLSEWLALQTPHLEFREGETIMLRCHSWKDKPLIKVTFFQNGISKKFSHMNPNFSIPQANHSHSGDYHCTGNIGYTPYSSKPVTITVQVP

T4: cynomolgus monkey FcγRIIa2 extracellular domain, C-terminal His-tag (cynomolgus monkey)
T4 construct: also called cyno FcγRIIa2; FcgRIIa2
T4 chain: T2 chain with I127K, K130N, P133H, R142Q

T5: cynomolgus monkey FcγRIIa1 extracellular domain, C-terminal His-tag (cynomolgus monkey)
T5 construct: also called cyno FcγRIIa1; FcgRIIa1
T5 chain: T2 chain with T95P, A121T, S128A, P133H, N135D

T6: Human latent myostatin (human, UniProt O14793 25-266; O14793 267-375)
T6 construct: Biotinylated in the ELISAs; also called human myostatin latent form
T6 sequence 1: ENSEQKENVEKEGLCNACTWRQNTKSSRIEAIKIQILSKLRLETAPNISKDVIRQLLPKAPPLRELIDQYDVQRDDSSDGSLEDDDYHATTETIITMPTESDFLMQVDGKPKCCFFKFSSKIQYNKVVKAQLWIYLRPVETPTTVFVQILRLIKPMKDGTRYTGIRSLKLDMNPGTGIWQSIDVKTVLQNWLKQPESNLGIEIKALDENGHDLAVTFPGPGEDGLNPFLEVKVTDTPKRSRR
T6 sequence 2: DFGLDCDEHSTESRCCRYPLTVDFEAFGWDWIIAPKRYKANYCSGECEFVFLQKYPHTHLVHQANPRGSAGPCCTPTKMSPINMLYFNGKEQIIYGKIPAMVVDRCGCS

B1: M103205H795-MY001/M103202L889-SK1 (antibody, human IgG1, kappa)
heavy: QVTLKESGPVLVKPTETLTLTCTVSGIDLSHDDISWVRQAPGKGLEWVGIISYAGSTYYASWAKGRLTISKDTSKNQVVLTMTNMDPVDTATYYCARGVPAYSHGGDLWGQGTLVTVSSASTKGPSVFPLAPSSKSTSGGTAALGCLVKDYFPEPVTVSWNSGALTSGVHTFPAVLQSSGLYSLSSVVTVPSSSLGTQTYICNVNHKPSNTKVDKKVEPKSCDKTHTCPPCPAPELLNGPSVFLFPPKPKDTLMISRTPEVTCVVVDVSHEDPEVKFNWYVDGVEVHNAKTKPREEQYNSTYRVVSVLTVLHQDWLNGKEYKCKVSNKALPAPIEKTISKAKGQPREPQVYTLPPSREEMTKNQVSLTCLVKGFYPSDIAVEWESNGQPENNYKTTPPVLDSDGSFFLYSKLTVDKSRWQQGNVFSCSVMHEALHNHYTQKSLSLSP
light: DIVMTQSPATLSLSPGERATLSCTSSQSVYHANWLSWFQQKPGQPPKLLIYWASTLAYGVPSRFSGSGSGTDFTLTISSLQPEDAATYYCAGGYGGGRYAFGQGTKVEIKRTVAAPSVFIFPPSDEQLKSGTASVVCLLNNFYPREAKVQWKVDNALQSGNSQESVTEQDSKDSTYSLSSTLTLSKADYEKHKVYACEVTHQGLSSPVTKSFNRGEC
notes: also called G236N
B2: M103205H795-SG176/M103202L889-SK1 (antibody, human IgG1, kappa)
heavy: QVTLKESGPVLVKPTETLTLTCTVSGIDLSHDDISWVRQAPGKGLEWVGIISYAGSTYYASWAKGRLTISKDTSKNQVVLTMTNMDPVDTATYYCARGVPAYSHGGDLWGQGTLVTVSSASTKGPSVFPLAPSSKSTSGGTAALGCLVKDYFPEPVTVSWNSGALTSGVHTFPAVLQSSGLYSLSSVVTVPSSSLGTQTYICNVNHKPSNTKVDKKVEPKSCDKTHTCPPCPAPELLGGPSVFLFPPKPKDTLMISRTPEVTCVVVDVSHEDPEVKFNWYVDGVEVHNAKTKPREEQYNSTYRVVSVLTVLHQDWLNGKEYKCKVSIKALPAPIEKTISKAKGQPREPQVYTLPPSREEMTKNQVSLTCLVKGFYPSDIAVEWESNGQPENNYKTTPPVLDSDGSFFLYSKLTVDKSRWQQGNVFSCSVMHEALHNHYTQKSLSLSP
light: B1 light
notes: also called N325I
B3: M103205H795-SG173/M103202L889-SK1 (antibody, human IgG1, kappa)
heavy: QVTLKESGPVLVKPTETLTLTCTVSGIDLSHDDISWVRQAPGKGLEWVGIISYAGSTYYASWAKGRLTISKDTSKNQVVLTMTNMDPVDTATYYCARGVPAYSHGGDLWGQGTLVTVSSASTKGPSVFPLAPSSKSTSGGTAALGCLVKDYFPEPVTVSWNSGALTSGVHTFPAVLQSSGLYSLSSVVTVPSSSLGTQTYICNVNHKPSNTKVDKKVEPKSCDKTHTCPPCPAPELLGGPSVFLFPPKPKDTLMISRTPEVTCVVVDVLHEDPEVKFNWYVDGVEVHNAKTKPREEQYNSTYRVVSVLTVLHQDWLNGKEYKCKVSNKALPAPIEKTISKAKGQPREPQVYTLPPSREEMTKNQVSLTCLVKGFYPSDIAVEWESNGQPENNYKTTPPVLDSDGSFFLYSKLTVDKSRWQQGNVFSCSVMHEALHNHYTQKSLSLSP
light: B1 light
notes: also called S267L
B4: M103205H795-SG168/M103202L889-SK1 (antibody, human IgG1, kappa)
heavy: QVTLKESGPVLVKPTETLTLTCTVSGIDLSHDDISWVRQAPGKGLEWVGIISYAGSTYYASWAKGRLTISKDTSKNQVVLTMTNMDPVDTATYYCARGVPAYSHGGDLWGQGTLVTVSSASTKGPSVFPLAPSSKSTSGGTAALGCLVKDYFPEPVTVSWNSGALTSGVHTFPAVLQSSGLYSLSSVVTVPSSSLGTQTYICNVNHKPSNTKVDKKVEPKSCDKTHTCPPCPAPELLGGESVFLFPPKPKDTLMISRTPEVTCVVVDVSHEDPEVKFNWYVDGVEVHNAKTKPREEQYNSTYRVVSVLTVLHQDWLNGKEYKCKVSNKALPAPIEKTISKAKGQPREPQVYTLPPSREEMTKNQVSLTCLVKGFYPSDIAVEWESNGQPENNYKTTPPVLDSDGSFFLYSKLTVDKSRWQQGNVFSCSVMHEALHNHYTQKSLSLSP
light: B1 light
notes: also called P238E
B5: M103205H795-SG177/M103202L889-SK1 (antibody, human IgG1, kappa)
heavy: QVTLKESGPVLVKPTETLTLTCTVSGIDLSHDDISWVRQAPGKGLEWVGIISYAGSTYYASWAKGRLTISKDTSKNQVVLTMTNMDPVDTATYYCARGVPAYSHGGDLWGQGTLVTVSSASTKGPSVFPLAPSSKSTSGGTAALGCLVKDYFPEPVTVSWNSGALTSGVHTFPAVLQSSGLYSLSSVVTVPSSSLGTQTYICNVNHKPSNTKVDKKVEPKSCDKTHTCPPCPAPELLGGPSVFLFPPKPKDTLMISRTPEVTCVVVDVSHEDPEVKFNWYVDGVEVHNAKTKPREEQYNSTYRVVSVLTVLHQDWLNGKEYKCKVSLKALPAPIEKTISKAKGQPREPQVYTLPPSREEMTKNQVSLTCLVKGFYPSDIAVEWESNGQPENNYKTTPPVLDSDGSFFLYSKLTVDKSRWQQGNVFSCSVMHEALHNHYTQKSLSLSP
light: B1 light
notes: also called N325L
B6: M103205H795-SG178/M103202L889-SK1 (antibody, human IgG1, kappa)
heavy: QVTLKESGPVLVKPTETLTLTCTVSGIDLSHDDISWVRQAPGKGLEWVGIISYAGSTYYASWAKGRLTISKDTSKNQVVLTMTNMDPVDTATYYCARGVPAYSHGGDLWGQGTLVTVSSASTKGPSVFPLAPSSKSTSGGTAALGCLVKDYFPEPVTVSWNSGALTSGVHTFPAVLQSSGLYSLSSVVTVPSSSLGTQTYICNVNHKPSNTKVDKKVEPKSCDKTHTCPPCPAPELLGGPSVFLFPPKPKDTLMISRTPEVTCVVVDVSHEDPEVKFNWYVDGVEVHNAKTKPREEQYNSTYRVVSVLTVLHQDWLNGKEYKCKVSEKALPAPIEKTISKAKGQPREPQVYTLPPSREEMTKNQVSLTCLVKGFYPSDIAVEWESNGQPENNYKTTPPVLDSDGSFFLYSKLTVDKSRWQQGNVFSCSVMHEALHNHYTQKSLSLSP
light: B1 light
notes: also called N325E
B7: M103205H795-SG166/M103202L889-SK1 (antibody, human IgG1, kappa)
heavy: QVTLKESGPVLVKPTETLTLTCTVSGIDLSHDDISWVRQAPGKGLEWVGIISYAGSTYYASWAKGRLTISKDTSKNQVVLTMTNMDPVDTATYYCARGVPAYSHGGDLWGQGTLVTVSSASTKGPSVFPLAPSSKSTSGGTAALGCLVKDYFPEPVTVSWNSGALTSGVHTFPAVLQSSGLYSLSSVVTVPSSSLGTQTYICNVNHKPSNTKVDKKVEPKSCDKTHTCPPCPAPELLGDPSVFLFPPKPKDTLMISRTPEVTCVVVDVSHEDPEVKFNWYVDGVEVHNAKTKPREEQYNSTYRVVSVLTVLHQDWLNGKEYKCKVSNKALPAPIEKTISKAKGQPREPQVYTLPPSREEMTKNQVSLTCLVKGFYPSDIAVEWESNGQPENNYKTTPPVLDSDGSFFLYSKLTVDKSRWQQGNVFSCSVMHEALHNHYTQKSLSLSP
light: B1 light
notes: also called G237D
B8: M103205H795-SG167/M103202L889-SK1 (antibody, human IgG1, kappa)
heavy: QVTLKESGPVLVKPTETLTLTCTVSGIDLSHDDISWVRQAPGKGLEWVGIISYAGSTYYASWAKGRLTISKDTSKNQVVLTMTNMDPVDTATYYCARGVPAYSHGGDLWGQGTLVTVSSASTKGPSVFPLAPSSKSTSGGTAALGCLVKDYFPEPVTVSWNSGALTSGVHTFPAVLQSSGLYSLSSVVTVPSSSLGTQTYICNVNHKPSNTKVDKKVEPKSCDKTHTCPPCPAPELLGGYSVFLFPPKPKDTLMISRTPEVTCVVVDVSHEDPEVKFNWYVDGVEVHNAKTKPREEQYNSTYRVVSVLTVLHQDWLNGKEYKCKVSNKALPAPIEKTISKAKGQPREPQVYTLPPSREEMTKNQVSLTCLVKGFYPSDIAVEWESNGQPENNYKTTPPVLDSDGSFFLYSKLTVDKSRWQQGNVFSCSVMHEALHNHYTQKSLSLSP
light: B1 light
notes: also called P238Y
B9: M103205H795-SG169/M103202L889-SK1 (antibody, human IgG1, kappa)
heavy: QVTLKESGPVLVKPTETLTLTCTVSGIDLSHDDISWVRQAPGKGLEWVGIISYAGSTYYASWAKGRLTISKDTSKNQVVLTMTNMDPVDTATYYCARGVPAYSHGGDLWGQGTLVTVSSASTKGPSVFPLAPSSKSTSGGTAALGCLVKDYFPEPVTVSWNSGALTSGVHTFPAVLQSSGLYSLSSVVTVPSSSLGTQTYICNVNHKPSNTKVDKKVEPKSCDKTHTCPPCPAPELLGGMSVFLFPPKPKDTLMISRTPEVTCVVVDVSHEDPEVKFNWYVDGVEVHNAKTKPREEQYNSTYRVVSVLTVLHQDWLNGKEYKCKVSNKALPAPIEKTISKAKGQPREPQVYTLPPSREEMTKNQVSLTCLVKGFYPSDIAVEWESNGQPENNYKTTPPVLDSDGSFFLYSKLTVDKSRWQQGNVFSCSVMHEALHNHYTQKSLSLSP
light: B1 light
notes: also called P238M
B10: M103205H795-SG172/M103202L889-SK1 (antibody, human IgG1, kappa)
heavy: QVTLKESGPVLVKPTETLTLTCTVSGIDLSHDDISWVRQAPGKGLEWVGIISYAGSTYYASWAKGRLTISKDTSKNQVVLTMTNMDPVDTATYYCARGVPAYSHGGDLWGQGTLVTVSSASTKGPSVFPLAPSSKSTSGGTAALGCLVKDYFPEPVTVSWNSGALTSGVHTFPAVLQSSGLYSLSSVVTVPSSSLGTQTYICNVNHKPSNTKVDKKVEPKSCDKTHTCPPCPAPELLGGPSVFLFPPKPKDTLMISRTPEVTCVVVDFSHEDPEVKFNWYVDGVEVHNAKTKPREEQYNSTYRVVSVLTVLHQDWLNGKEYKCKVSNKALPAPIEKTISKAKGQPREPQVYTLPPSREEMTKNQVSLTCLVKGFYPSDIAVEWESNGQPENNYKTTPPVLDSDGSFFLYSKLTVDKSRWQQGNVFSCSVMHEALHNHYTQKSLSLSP
light: B1 light
notes: also called V266F
B11: M103205H795-SG170/M103202L889-SK1 (antibody, human IgG1, kappa)
heavy: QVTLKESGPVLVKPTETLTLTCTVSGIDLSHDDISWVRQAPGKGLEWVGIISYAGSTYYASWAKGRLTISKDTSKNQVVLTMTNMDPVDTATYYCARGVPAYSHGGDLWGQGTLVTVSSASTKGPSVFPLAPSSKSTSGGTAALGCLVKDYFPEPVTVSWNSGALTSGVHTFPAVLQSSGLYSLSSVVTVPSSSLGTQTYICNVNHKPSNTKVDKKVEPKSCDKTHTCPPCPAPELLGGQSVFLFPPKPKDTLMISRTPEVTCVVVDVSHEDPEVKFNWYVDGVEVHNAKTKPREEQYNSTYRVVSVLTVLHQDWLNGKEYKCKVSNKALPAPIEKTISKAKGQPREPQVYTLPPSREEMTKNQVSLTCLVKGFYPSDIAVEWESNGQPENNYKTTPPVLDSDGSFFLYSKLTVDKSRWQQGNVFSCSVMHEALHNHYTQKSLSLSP
light: B1 light
notes: also called P238Q
B12: M103205H795-SG174/M103202L889-SK1 (antibody, human IgG1, kappa)
heavy: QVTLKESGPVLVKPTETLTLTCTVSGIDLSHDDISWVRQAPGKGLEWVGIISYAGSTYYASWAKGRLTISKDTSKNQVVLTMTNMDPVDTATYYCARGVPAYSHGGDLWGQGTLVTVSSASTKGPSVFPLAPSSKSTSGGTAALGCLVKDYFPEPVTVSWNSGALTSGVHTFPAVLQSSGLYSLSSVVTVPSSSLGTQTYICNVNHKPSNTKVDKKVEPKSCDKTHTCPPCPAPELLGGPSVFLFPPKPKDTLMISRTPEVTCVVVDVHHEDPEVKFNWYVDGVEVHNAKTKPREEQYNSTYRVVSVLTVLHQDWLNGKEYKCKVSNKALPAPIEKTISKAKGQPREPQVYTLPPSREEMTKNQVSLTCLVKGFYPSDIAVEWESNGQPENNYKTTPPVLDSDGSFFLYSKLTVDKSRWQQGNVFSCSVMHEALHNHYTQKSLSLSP
light: B1 light
notes: also called S267H
B13: MS_M103205H707-SG1/M103202L802-SK1 (antibody, human IgG1, kappa, V domains shown)
VH: QVTLKESGPVLVKPTETLTLTCTVSGIDLSHYDISWVRQAPGKGLEWVGIISYAGSTYYASWAKGRLTISKDTSKNQVVLTMTNMDPVDTATYYCARGVPAYSHGGDLWGQGTLVTVSS
VL: DIVMTQSPATLSLSPGERATLSCTSSQSVYHDNWLSWFQQKPGQPPKLLIYWASTLAYGVPSRFSGSGSGTDFTLTISSLQPEDAATYYCAGGYGGGLYAFGQGTKVEIKR
notes: also called MS1032LO04-SG1; MSLO-04

Columns and labels:
[1] = target: T1, cynomolgus monkey FcγRIIIaS …; assay: SPR; FcgR bound per captured antibody, normalized to SG1
Method: (§1) The kinetic analysis of interactions between these antibodies and FcγR was carried out using BIACORE® T200 or BIACORE® 4000 (GE Healthcare). HBS-EP+ (GE Healthcare) was used as the running buffer, and the measurement temperature was set to 25° C. A chip produced by immobilizing Protein A. Protein A/G or mouse anti-human IgG kappa light chain (BD Biosciences) onto a Series S Sensor Chip CM4 or CM5 (GE Healthcare) by the amine-coupling method was used. […] After the measurement, the antibody captured on the chip was washed off by allowing reaction with 10 mM glycine-HCl, pH1.5 and 25 mM NaOH so that the chip was regenerated and used repeatedly. The sensorgrams obtained as measurement results were analyzed by the 1:1 Langmuir binding model using the BIACORE® Evaluation Software to calculate the binding rate constant ka (L/mol/s) and dissociation rate constant kd (l/s), and the dissociation constant KD (mol/L) was calculated from these values. […] Regarding such interactions, KD values were calculated using the following 1:1 binding model described in BIACORE® T100 Software Handbook BR1006-48 Edition AE.
(§2) The value of the amount of FcγR binding was obtained by dividing the amount of FcγR bound by the amount of each antibody captured.

[2] = target: T2, cynomolgus monkey FcγRIIa3 …; assay: as above
Method: as §1, §2

[3] = target: T3, cynomolgus monkey FcγRIIb extracellular …; assay: as above
Method: as §1, §2

[4] = target: T4, cynomolgus monkey FcγRIIa2 …; assay: as above
Method: as §1, §2

[5] = target: T5, cynomolgus monkey FcγRIIa1 …; assay: as above
Method: as §1, §2

Human latent myostatin = target: T6, Human latent myostatin; assay: SPR (BIACORE T200), 37 C, pH7.4, avidity condition (capture 185 RU), 1:1 fit; pH 7.4
Method: The kinetic parameters of anti-latent myostatin antibodies against human, cynomolgus monkey (cyno), and mouse latent myostatin were assessed at 37° C. at pH7.4 using a BIACORE® T200 instrument (GE Healthcare). ProA/G (Pierce) was immobilized onto all flow cells of a CM4 chip using amine coupling kit (GE Healthcare). Anti-latent myostatin antibody and analytes were prepared in ACES pH7.4 (20 mM ACES, 150 mM NaCl, 1.2 mM CaCl₂), 0.05% TWEEN® 20, 0.005% NaN₃). […] Then human, cyno, or mouse latent myostatin was injected at 3.125 to 50 nM prepared by two-fold serial dilution, followed by dissociation. The sensor surface was regenerated with 25 mM NaOH. Kinetic parameters were determined by processing and fitting the data to a 1:1 binding model using BIACORE® T200 Evaluation software, version 2.0 (GE Healthcare).
All experimental settings were the same as in Example 7, except that measurements were also performed in ACES pH5.8 buffer in addition to ACES pH7.4 condition. Some antibodies were only measured against human latent myostatin. Antibody capture level was aimed at 185 RU and 18.5 RU, for avidity and affinity assay, respectively. Kinetic parameters were determined using 1:1 Binding fitting using BIACORE® T200 Evaluation software, version 2.0 (GE Healthcare).

amount of FcgR binding (SG1 = 100) [1] [SG1 = 100] | amount of FcgR binding (SG1 = 100) [2] [SG1 = 100] | amount of FcgR binding (SG1 = 100) [3] [SG1 = 100] | amount of FcgR binding (SG1 = 100) [4] [SG1 = 100] | amount of FcgR binding (SG1 = 100) [5] [SG1 = 100] | Kd (Human latent myostatin) [nM] | koff (Human latent myostatin) [s⁻¹] | kon (Human latent myostatin) [M⁻¹ s⁻¹] | Binder
15 | 62 | 85 | 86 | 83 | – | – | – | B1
20 | 19 | 16 | 15 | 14 | – | – | – | B2
24 | 21 | 12 | 14 | 13 | – | – | – | B3
13 | 30 | 28 | 16 | 21 | – | – | – | B4
21 | 25 | 18 | 15 | 15 | – | – | – | B5
36 | 29 | 26 | 21 | 22 | – | – | – | B6
5 | 17 | – | 10 | 10 | – | – | – | B7
14 | 38 | 22 | 14 | 18 | – | – | – | B8
22 | 32 | 22 | 16 | 17 | – | – | – | B9
31 | 27 | 16 | 17 | 14 | – | – | – | B10
12 | 21 | 18 | 15 | 16 | – | – | – | B11
15 | 20 | 11 | 16 | 13 | – | – | – | B12
– | – | – | – | – | 0.163 | 0.000217 | 1.33e+06 | B13
